These results are taken from patent US20240299505A1 (INDUSTRY UNIVERSITY COOPERATION FOUNDATION HANYANG …, published 2024).

Sequences and labels used below:
B1: endogenous NAMPT / extracellular NAMPT (eNAMPT) of mouse macrophages (BMDMs) and mouse colon (enzyme, UniProt Q99KQ4 1-491, looked up)
chain: MNAAAEAEFNILLATDSYKVTHYKQYPPNTSKVYSYFECREKKTENSKVRKVKYEETVFYGLQYILNKYLKGKVVTKEKIQEAKEVYREHFQDDVFNERGWNYILEKYDGHLPIEVKAVPEGSVIPRGNVLFTVENTDPECYWLTNWIETILVQSWYPITVATNSREQKKILAKYLLETSGNLDGLEYKLHDFGYRGVSSQETAGIGASAHLVNFKGTDTVAGIALIKKYYGTKDPVPGYSVPAAEHSTITAWGKDHEKDAFEHIVTQFSSVPVSVVSDSYDIYNACEKIWGEDLRHLIVSRSTEAPLIIRPDSGNPLDTVLKVLDILGKKFPVTENSKGYKLLPPYLRVIQGDGVDINTLQEIVEGMKQKKWSIENVSFGSGGALLQKLTRDLLNCSFKCSYVVTNGLGVNVFKDPVADPNKRSKKGRLSLHRTPAGNFVTLEEGKGDLEEYGHDLLHTVFKNGKVTKSYSFDEVRKNAQLNIEQDVAPH
notes: Endogenous protein of mouse cells or tissue, immunoprecipitated with anti-NAMPT; also called iNAMPT
B4: recombinant NAMPT protein (rNAMPT) (enzyme)
chain: MNPAAEAEFNILLATDSYKVTHYKQYPPNTSKVYSYFECREKKTENSKLRKVKYEETVFYGLQYILNKYLKGKVVTKEKIQEAKDVYKEHFQDDVFNEKGWNYILEKYDGHLPIEIKAVPEGFVIPRGNVLFTVENTDPECYWLTNWIETILVQSWYPITVATNSREQKKILAKYLLETSGNLDGLEYKLHDFGYRGVSSQETAGIGASAHLVNFKGTDTVAGLALIKKYYGTKDPVPGYSVPAAEHSTITAWGKDHEKDAFEHIVTQFSSVPVSVVSDSYDIYNACEKIWGEDLRHLIVSRSTQAPLIIRPDSGNPLDTVLKVLEILGKKFPVTENSKGYKLLPPYLRVIQGDGVDINTLQEIVEGMKQKMWSIENIAFGSGGGLLQKLTRDLLNCSFKCSYVVTNGLGINVFKDPVADPNKRSKKGRLSLHRTPAGNFVTLEEGKGDLEEYGQDLLHTVFKNGKVTKSYSFDEIRKNAQLNIELEAAHH
notes: Pulled down with anti-His, so it carries a His tag; also called eNAMPT (rNAMPT); unlabeled NAMPT

The target of test [1] is T1, endogenous TLR4 of mouse macrophages (BMDMs) and mouse colon (mouse, UniProt Q9QUK6 26-835).
T1 construct: whole, on cells; Detected by immunoblot after co-immunoprecipitation from lysates
T1 sequence (looked up): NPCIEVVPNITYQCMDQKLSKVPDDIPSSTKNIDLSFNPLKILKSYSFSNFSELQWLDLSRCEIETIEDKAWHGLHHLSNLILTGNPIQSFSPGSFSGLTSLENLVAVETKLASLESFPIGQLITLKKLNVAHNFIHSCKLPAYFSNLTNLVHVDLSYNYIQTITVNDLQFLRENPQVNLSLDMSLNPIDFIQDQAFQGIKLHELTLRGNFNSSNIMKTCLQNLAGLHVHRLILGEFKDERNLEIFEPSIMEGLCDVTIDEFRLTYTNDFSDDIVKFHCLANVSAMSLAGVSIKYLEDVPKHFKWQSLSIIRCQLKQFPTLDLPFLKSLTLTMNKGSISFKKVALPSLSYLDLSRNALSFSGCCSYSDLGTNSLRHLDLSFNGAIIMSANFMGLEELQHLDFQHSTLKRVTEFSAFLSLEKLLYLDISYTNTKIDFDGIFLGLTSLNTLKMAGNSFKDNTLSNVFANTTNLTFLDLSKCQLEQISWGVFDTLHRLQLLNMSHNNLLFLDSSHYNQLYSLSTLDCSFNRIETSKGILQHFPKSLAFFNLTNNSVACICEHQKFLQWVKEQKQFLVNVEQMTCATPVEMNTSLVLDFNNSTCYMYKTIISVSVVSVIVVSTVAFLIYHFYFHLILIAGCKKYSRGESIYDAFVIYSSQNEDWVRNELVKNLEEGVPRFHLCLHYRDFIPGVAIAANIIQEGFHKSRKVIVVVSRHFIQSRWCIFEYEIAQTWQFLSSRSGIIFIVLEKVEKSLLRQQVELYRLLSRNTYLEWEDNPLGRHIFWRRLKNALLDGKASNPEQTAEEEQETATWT
As to the kind of experiment: co-IP (anti-His or anti-NAMPT) from mouse colon tissue, anti-TLR4 blot.

For test [2], the target named is T2, endogenous NLRP3 of mouse macrophages (BMDMs) (mouse, UniProt Q8R4B8 1-1033, limits assumed). As to the kind of experiment: co-IP (anti-NAMPT) from LPS/ATP-treated BMDMs, anti-NLRP3 blot.
T2 sequence (Q8R4B8 whole entry): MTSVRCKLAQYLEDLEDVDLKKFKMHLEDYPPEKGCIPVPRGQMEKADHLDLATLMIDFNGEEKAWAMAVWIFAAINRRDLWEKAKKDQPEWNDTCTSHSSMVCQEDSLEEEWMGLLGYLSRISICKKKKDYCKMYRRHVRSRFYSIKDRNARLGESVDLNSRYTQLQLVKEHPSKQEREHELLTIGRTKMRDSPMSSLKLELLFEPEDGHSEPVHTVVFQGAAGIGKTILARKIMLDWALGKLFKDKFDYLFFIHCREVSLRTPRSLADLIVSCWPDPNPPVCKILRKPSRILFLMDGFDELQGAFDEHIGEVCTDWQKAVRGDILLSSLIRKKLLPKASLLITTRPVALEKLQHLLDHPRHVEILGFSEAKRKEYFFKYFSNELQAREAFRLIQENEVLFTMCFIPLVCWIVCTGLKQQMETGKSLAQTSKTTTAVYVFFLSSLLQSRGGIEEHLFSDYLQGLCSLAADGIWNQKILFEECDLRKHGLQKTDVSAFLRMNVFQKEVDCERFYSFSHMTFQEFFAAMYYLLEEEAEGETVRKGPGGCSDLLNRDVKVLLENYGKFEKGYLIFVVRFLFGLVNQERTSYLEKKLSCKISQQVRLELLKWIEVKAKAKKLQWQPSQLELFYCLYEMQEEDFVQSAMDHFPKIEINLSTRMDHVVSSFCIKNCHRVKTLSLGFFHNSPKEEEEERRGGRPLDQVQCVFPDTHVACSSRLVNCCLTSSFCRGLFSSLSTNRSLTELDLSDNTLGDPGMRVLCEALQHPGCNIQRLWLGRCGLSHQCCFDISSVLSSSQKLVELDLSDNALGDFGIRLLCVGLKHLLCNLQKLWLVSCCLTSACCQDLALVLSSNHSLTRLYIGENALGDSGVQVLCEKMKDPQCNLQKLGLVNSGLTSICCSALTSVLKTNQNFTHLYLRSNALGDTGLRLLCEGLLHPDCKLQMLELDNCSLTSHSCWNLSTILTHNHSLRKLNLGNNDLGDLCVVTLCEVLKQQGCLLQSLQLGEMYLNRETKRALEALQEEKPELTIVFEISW
Test [3] concerns the target T3, endogenous CYBB of mouse macrophages (BMDMs) and mouse colon (mouse, UniProt Q61093 2-570).
T3 construct: whole, on cells; Detected by immunoblot after co-immunoprecipitation from lysates; also called NOX2; gp91Phox
T3 sequence (looked up): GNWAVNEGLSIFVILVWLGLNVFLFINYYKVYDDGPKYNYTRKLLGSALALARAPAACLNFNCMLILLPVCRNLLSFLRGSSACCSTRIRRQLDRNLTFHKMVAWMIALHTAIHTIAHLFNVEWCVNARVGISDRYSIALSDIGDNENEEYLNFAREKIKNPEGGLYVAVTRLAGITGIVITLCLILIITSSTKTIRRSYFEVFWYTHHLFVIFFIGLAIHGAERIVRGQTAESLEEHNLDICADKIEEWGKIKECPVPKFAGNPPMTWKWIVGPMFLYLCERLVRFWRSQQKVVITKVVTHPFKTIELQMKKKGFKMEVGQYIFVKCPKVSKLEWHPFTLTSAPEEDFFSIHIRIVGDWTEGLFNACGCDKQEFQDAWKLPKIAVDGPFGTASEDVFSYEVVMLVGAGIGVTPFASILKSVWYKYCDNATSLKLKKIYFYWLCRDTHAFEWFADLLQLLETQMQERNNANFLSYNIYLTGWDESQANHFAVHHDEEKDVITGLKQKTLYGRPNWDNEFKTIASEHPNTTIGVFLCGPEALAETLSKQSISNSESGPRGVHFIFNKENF
Kind of test: co-IP (anti-His or anti-NAMPT) from mouse colon tissue, anti-CYBB blot.

In test [4] the target is B4. Kind of test: co-IP (anti-His) from BMDMs incubated with rNAMPT, anti-ASC blot.
Test [5] has as its target B1. Kind of test: co-IP (anti-NAMPT) from LPS/ATP-treated BMDMs, anti-ASC blot.
The target in test [6] is B4. As to the kind of experiment: fluorescence binding: titration of fluorescently labeled CYBB with unlabeled rNAMPT, curve fit.
Description: Specifically, (A) normal human cases along with UC patients were used for IB with αNAMPT and αCYBB. For IB with αActin (upper), whole cell lysates (WCLs) were used. Representative gel images derived from five independent healthy controls and patients were shown. […] Five of ten data from normal human and UC patients were shown. […] (B) The colons of normal mice and mice with acute and chronic colitis were analyzed for IB with αNAMPT and αCYBB. WCLs were used for IB together with αActin. Biological replicates (n=10) for each condition were performed. (C) BMDMs were activated with LPS (100 ng/mL) for the indicated times (left), primed with LPS (100 ng/ml) for 4 hours, and then stimulated with ATP (1 mM) for the indicated times (right). IB in the supernatant (SN) with αNAMPT and WCL with αNAMPT or αActin. […] BMDMs were treated for IP with αNAMPT or αHis, and then treated sequentially IB with αTLR4, αCYBB, or αCYBA (D), and IB with αASC or αNLRP3(E). WCLs were used for IB with αTLR4, αCYBB, αCYBA, αASC, αNLRP3 or αActin.
Test [7] has as its target T2, endogenous NLRP3 of mouse macrophages …. Kind of test: co-IP (anti-His) from BMDMs incubated with rNAMPT, anti-NLRP3 blot.

In the case of B1, the binding result in test [1] was “binds”; in test [2], “no binding”; in test [3], “binds”.

B2: endogenous ASC of mouse macrophages (BMDMs) (other, UniProt Q9EPB4 1-193, looked up)
chain: MGRARDAILDALENLSGDELKKFKMKLLTVQLREGYGRIPRGALLQMDAIDLTDKLVSYYLESYGLELTMTVLRDMGLQELAEQLQTTKEESGAVAAAASVPAQSTARTGHFVDQHRQALIARVTEVDGVLDALHGSVLTEGQYQAVRAETTSQDKMRKLFSFVPSWNLTCKDSLLQALKEIHPYLVMDLEQS
In the case of B2, the values for the binding result in test [4] and in test [5] were “no binding (tested: 1 ug/mL rNAMPT)” and “no binding”, respectively.

B3: fluorescently labeled CYBB (enzyme)
chain: MGNWAVNEGLSIFVILVWLGLNVFLFVWYYRVYDIPPKFFYTRKLLGSALALARAPAACLNFNCMLILLPVCRNLLSFLRGSSACCSTRVRRQLDRNLTFHKMVAWMIALHSAIHTIAHLFNVEWCVNARVNNSDPYSVALSELGDRQNESYLNFARKRIKNPEGGLYLAVTLLAGITGVVITLCLILIITSSTKTIRRSYFEVFWYTHHLFVIFFIGLAIHGAERIVRGQTAESLAVHNITVCEQKISEWGKIKECPIPQFAGNPPMTWKWIVGPMFLYLCERLVRFWRSQQKVVITKVVTHPFKTIELQMKKKGFKMEVGQYIFVKCPKVSKLEWHPFTLTSAPEEDFFSIHIRIVGDWTEGLFNACGCDKQEFQDAWKLPKIAVDGPFGTASEDVFSYEVVMLVGAGIGVTPFASILKSVWYKYCNNATNLKLKKIYFYWLCRDTHAFEWFADLLQLLESQMQERNNAGFLSYNIYLTGWDESQANHFAVHHDEEKDVITGLKQKTLYGRPNWDNEFKTIASQHPNTRIGVFLCGPEALAETLSKQSISNSESGPRGVHFIFNKENF
As usually defined, the Kd is the constant that tells how readily two partners part at equilibrium. Consider B3, for which the Kd in test [6] worked out at 896 nM.

As for B4, the binding result in test [7] is “no binding (tested: 1 ug/mL rNAMPT)”.
